Laboratory results as given in PMC4751435 (2016).

Assays:
Assay in all cases: BRET
[1] = target: luciferase-FOXP1 (UniProt Q9H334); details: HEK293 cells, n = 3, read off a plot
[2] = target: luciferase-FOXP2 (wild-type, full-length 1-715) (UniProt O15409); details: HEK293 cells, n = 3, read off a plot
[3] = target: luciferase-FOXP2 (wild-type, full-length 1-715) (UniProt O15409); details: HEK293 cells, n = 3, read off a plot; remark: listed apart in the source
[4] = target: YFP-SUMO1 alanine mutant (AA), P63165-1; details: HEK293 cells; n = 3; control donor (nuclear-targeted luciferase) est. 0.005; parent: est. 0.15; read off a plot
Chain of YFP-SUMO1 alanine mutant (AA), P63165-1 (P63165 1-97, change not shown): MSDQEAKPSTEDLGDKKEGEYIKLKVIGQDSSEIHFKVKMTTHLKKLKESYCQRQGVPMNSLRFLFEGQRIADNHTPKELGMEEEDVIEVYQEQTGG

[5] = target: YFP-SUMO1 alanine mutant (AA), P63165-1; details: HEK293 cells; n = 3; control donor (nuclear-targeted luciferase) est. 0.004; parent: est. 0.15; read off a plot
[6] = target: YFP-SUMO2 alanine mutant (AA), P61956-1; details: HEK293 cells; n = 3; control donor (nuclear-targeted luciferase) est. 0.028; parent: est. 0.20; read off a plot
[7] = target: YFP-SUMO2 alanine mutant (AA), P61956-1; details: HEK293 cells; n = 3; control donor (nuclear-targeted luciferase) est. 0.028; parent: est. 0.20; read off a plot; remark: listed apart in the source
[8] = target: YFP-SUMO3 alanine mutant (AA), P55854-2; details: HEK293 cells; n = 3; control donor (nuclear-targeted luciferase) est. 0.034; parent: est. 0.23; read off a plot
Chain of YFP-SUMO3 alanine mutant (AA), P55854-2 (P55854 other isoform, or with tags, fused parts or gaps, change not shown): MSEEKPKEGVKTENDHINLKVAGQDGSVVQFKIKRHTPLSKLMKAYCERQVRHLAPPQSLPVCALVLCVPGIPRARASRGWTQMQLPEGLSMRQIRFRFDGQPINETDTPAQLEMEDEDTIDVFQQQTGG

[9] = target: YFP-SUMO3 alanine mutant (AA), P55854-2; details: HEK293 cells; n = 3; control donor (nuclear-targeted luciferase) est. 0.034; parent: est. 0.23; read off a plot; remark: listed apart in the source
[10] = control donor (nuclear-targeted luciferase) est. 0.028, parent: est. 0.20
[11] = control donor (nuclear-targeted luciferase) est. 0.034, parent: est. 0.23

Substance: YFP-SUMO1 (wild-type, GG) (from UniProt P63165-1) AA
- response ([1]; control donor (nuclear-targeted luciferase) est. 0.000, parent: est. 0.15): -0.043 BRET ratio
- response ([2]; control donor (nuclear-targeted luciferase) est. 0.000, parent: est. 0.077): -0.017 BRET ratio
- response ([2]; control donor (nuclear-targeted luciferase) est. 0.005, parent: est. 0.15): 0.019 BRET ratio
- response ([3]; control donor (nuclear-targeted luciferase) est. 0.004, parent: est. 0.15): 0.019 BRET ratio

Substance: YFP-SUMO2 (wild-type, GG) (from UniProt P61956-1) AA
- response ([1]; control donor (nuclear-targeted luciferase) est. 0.012, parent: est. 0.19): -0.036 BRET ratio
- response ([2]; control donor (nuclear-targeted luciferase) est. 0.012, parent: est. 0.13): 0.005 BRET ratio
- response [2, 10]: 0.032 BRET ratio
- response [3, 10]: 0.032 BRET ratio

Substance: YFP-SUMO3 (wild-type, GG) (from UniProt P55854) AA
- response ([1]; control donor (nuclear-targeted luciferase) est. 0.015, parent: est. 0.20): -0.035 BRET ratio
- response ([2]; control donor (nuclear-targeted luciferase) est. 0.015, parent: est. 0.15): 0.012 BRET ratio
- response [2, 11]: 0.065 BRET ratio
- response [3, 11]: 0.065 BRET ratio

Substance: m1; m10 FOXP2:K674R; SUMO1:AA
- response [4]: 0.012 BRET ratio

Substance: m1; m10 FOXP2:R553H; SUMO1:AA
- response [5]: 0.008 BRET ratio

Substance: m1; m11 FOXP2:K674R; SUMO2:AA
- response [6]: 0.021 BRET ratio

Substance: m1; m11 FOXP2:R553H; SUMO2:AA
- response [7]: 0.048 BRET ratio

Substance: m1; m12 FOXP2:K674R; SUMO3:AA
- response [8]: 0.043 BRET ratio

Substance: m1; m12 FOXP2:R553H; SUMO3:AA
- response [9]: 0.027 BRET ratio
